This is an account of results in publication PMC12375108.

As a reminder, the pKd is the negative decadic logarithm of the Kd, by convention in mol/L. Higher therefore signals a small Kd.

pKd: −log10 of the molar value.

In test [1] the target is GST-tagged H. sapiens hinT H112N (human) (UniProt P49773). Nature of the test: BLI; GST-hinT (90 nM) immobilised on anti-GST biosensors; sucA-AMP 500 to 7.81 nM, unmodified sucA at 500 nM; 10 mM Tris pH 8, 150 mM NaCl, 0.1% Triton X-100; KD from steady-state responses, one site. For orientation: Biolayer interferometry detects binding as a change in optical thickness at a sensor tip.
Chain of GST-tagged H. sapiens hinT H112N (human) (P49773 whole entry H112N): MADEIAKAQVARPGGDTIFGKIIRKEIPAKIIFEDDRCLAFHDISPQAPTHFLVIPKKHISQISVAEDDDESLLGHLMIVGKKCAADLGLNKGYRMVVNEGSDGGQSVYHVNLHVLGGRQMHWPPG

The target in test [2] is GST-tagged E. coli hinT H101N (E. coli) (UniProt P0ACE7). The test is described as above.
The target in test [3] is AMPylated GlnA (glutamine synthetase), recombinant (E. coli) (UniProt P0A9C5). Nature of the test: cryo-EM structure; GlnA (4.68 mg/ml) mixed with hinT (3.29 mg/ml), 1:3 molar ratio of monomers; 10 mM Tris pH 8, 150 mM NaCl, 2 mM DTT.

For the substance “AMPylated sucA (from UniProt P0AFG3 1-933) (enzyme)”, the pKd in test [1] is 8.00; in test [2] it was 7.57.

Turning to “E. coli hinT H101N (untagged) (from UniProt P0ACE7 1-119) (enzyme)”, the stoichiometry N (hinT dimers per GlnA dodecamer) in test [3] is < 6.
